Assay results taken from the supplement of paper PMC9170038.

Test system: MS2 coat protein
Assay: apparent KD of MS2 coat protein; designed switch direction (-1 OFF switch, 1 ON switch): -1; higher = weaker reporter binding
Outline: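 Designed RNA switches with common flanks were made on Illumina chips by stalled E. coli RNA polymerase. Titration with SNAP-549-labelled MS2 coat protein doubled from 0.7 or 1.5 nM up to 3 µM. Apparent KD is each design's median over clusters after curve-fitting normalised fluorescence.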

[1] = input ligand: microRNA oligo, concentration not stated
[2] = Eterna round: R95, input ligand: microRNA oligo, concentration not stated
[3] = Eterna round: R95, input ligand: FMN 200 uM
[4] = Eterna round: R95, input ligand: none

Row | Sequence | apparent KD of MS2 coat protein (input ligand: FMN 200 uM) [nM] | apparent KD of MS2 coat protein (input ligand: none) [nM] | apparent KD of MS2 coat protein [1] [nM] | further results
1 | CGCUGGUGAGGAUAUGGGUGUGGUUACAUGAGGAUCACCCAUGUGGUGUCGCAUGUGGGUCCAGAAGGCGCGGGUG [-25.2, -23.4 kcal, 17% A] (Eterna round: R97, puzzle: Exclusion 5) | 856 | 585 | – | –
2 | GGUGAGCUAGGAUAUGCUUUGGGAAAGCAUUCCUUCGAUAAACUUGAGGAUCACCCAAGUAGAAGGAGCUUGCC [salish99_ex2_r4_019] (Eterna round: R97, puzzle: Exclusion 2) | 18.7 | 11.9 | – | –
3 | CUGAACCCGGUAGGAUAUAUUGUGGGCGGGCGUGGAACGACAUGAGGAUCACCCAUGUAAUUGAGGUAGAAGGGCCGAGAGGUU [Excl-NG2-LRO16] (Eterna round: R96, puzzle: Exclusion NG 2) | 38.5 | 43.8 | 30.4 | –
4 | AAAUCACAUGAGGAUCACCCAUGUGAGGAUAUGAUACUAUGUACUUCGGUACAUAGUAUCAGAAGGCAUAUGGA [Ex1-3: 32] (puzzle: Exclusion 1) | – | – | – | apparent KD of MS2 coat protein [2]: 22.9 nM
5 | UAAUUAAAUGUGAGGAUAUGCUGGUCCUUGGAUCAGCAGAAGGCACAUGAGGAUCACCCAUGUAAUUUAUUUAU [Mat - Exclusion 4 - JL Mod - D59] (puzzle: Brourd's mod of Exclusion 4) | – | – | – | apparent KD of MS2 coat protein [2]: 54.3 nM
6 | CCAAGCUUAUUCAUUAACCACAUGAGGAUCACCCAUGUAUAGGCAAUUAUGACUGGGCCAUCUGGUGCUCGUCUUAU [Sensor-V1 #29] (Eterna round: R97, puzzle: Sensor, turn-off variant 1) | 16.2 | 15.2 | – | –
7 | GGAAUACCCUCGAGUUAUCACAUGAGGAUCACCCAUGUCCCAAGCCUUUUGCUCUGAGCUGCGUAUACGCAGAUGUA [Eternabot (Original) Solution 23] (Eterna round: R97, puzzle: Sensor, turn-off variant 1) | 112 | 128 | – | –
8 | AGCGCCAUCGUGAGAUGGCGUAUUACAUGAGGAUCACCCAUGUAGGAUAUCGAUUGCUUUGCAGUCGAGAAGGACAUGUUCUAG [JL ENG3 3.80 Mod A] (Eterna round: R96, puzzle: Exclusion NG 3) | 95.5 | 60.6 | 35.9 | –
9 | GUUAUGUUAGGAUAUGCUUAUGGUGGGUGCUCAGACAUGAUGCAGAAGGGACAUGAGGAUCACCCAUGUACUGU [EX4 #19] (Eterna round: R97, puzzle: Exclusion 4) | 777 | 991 | – | –
10 | GCAGCAUUGUUUACUAACAGUUACAUGAGGAUCACCCAUGUUCAGGAUAUGGUCUGGAUUACAGGCCAGAAGGGAACAAGCUGC [Eli exng3 - 031] (Eterna round: R96, puzzle: Exclusion NG 3) | 9.09 | 15 | 9.39 | –
11 | CUAAUACAUCAGGAUAUGAUAGCUUAUAGCAUAUCAGAAGGGAUGACAUGAGGAUCACCCAUGUCAAAGGGUGA [eternacac ex6r4 sub18] (Eterna round: R97, puzzle: Exclusion 6) | 130 | 590 | – | –
12 | AGUCAGGCGGUAGGAUAUCCAAAUCGAGUGACCCUUUCAUAACAUGAGGAUCACCCAUGUCGGUGGGAGAAGGGCCGUACGGCG [JL ViennaUCT Atra mod 3] (Eterna round: R96, puzzle: Exclusion NG 2) | 232 | 104 | 88 | –
13 | UCGACGUCGUCAGGAUAUAGUCUUAAUGUCAUGCUUUUGUUCGUACAUGAGGAUCACCCAUGUGGCUAGAAGGGACUAAAGAUU [JR_ExcNG2_Sub015] (Eterna round: R96, puzzle: Exclusion NG 2) | 12.3 | 15.8 | 10.1 | –
14 | AAUAACAGAGGAUAUACUAUUUUAUGUAUUUAUUAUUUUGAACAUGAGGAUCACCCAUGUAGAAGGCUGAGUAA [JMF 35] (puzzle: Exclusion 2) | – | – | – | apparent KD of MS2 coat protein [2]: 25.3 nM
15 | CCUAGUGUCGGAGGAUAUCCUACACAAACCUUAGGAGAAGGCCGACAUGAGGAUCACCCAUGUAAAACCUAAACCUAAAAUCAA [Raesusbi] (Eterna round: R96, puzzle: Exclusion NG 1) | 48.9 | 15.2 | 12.8 | –
16 | AGACAGUCAGGAUAUACAUGAGGAUCACCCAUGUUAAGAAGAGAAAGGGCAGGAAGAGGUAGAAGGGACAAGAA [JR_Exclu3_Sub033] (puzzle: Exclusion 3) | – | – | – | apparent KD of MS2 coat protein [3]: 21.1 nM; apparent KD of MS2 coat protein [2]: 23.6 nM; apparent KD of MS2 coat protein [4]: 29.5 nM
17 | UUUUAACAUGAGGAUCACCCAUGUGAGGAUAUCGAUUUUUAUAUUAAUAUUAAUAAAACGAGAAGGCACAUUUU [JMF 11] (puzzle: Exclusion 1) | – | – | – | apparent KD of MS2 coat protein [2]: 123 nM

Row | Sequence | apparent KD of MS2 coat protein (input ligand: FMN 200 uM) [nM] | apparent KD of MS2 coat protein (input ligand: none) [nM] | apparent KD of MS2 coat protein [1] [nM] | further results
18 | AACCCUGUAGGAUAUCAGGGACUACACAUGAGGAUCACCCAUGUGACCUCAACCUAGUGUUGAGAAGGACAGGUAU [Eternabot (Original) Solution 22] (Eterna round: R97, puzzle: Exclusion 5) | 50.9 | 49.1 | – | –
19 | AAAACUGCCCAUAACCGCAAGCUUUUUGCUUGUCUUACCACAUGAGGAUCACCCAUGUGACAUGGGCUCCUUAUAAA [Arixeerat] (puzzle: Sensor v3, turn-off variant 2) | – | – | – | apparent KD of MS2 coat protein [3]: 14.1 nM; apparent KD of MS2 coat protein [2]: 8.53 nM; apparent KD of MS2 coat protein [4]: 12 nM
20 | ACAGUGUUAGGAUAUGUGUGAGUUAGUCUCGACUAGUCGAUGCAGAAGGAACAUGAGGAUCACCCAUGUAGAUC [EX4 #80] (Eterna round: R97, puzzle: Exclusion 4) | 136 | 64 | – | –
21 | UUAUAUAGUGUGAGGAUAUGCUGGUCCUUGGAUCAGCAGAAGGCACAUGAGGAUCACCCAUGUAGUUUAUUAUU [Mat - Exclusion 4 - JL Mod - D10] (puzzle: Brourd's mod of Exclusion 4) | – | – | – | apparent KD of MS2 coat protein [2]: 24.8 nM
22 | GUCCUGGCUUUUCACAGGCACAUGAGGAUCACCCAUGUCGUGGGUAGAUCCCUCCCUGGGAAAUCUGCUCGUCUUAU [Cac Sensor turn off v1 sub12] (Eterna round: R97, puzzle: Sensor, turn-off variant 1) | 78.9 | 84.6 | – | –
23 | UUGUUGUAUGUAGGAUAUGCAUAUUAUUAUUGUGCAGAAGGACAUGAGGAUCACCCAUGUAUAUUAUUAUUAUAUAUUAUAUAU [Title] (Eterna round: R96, puzzle: Exclusion NG 1) | – | – | 27.2 | –
24 | AAUUCACAUGAGGAUCACCCAUGUCAGGAUAUGGUUUCACGUUUUUCUUUUCUUGAUUCCAGAAGGGACAGCUA (puzzle: Exclusion 1) | – | – | – | apparent KD of MS2 coat protein [2]: 58.6 nM
25 | GUGUGCUGAGGAUAUACAGAGGAAGAUAAGAUAAGAUAAUCACAUGAGGAUCACCCAUGUAGAAGGCAGAGUGU [Excluse me!! 16 - Jieux - Exclusion 2] (puzzle: Exclusion 2) | – | – | – | apparent KD of MS2 coat protein [2]: 27 nM
26 | GUGUAACUACACGGGCUCAACAUGAGGAUCACCCAUGUCAUACACGCAAGCUUUUUGCUUGUCUUAUCAGUCCGUGA [Rereerdiin] (puzzle: Sensor v3, turn-off variant 1) | – | – | – | apparent KD of MS2 coat protein [3]: 13 nM; apparent KD of MS2 coat protein [2]: 13.4 nM; apparent KD of MS2 coat protein [4]: 11.1 nM
27 | AACAUGGCAGGAUAUUGAAAAUUGCACUUGAGGAUCACCCAAGUGGUUCUGCGGGCGAAGUAAGAAGGGCCUAAAA [Xeraabi] (Eterna round: R97, puzzle: Exclusion 5) | 232 | 27.3 | – | –
28 | GUCAGCUCGUGAGGAUAUACAUCACUGCUUCGGCAGUGUAUUAAGAUCACAUGAGGAUCACCCAUGUAGAAGGCACGAGCUGAU [ENG2/2-A2] (Eterna round: R96, puzzle: Exclusion NG 2) | 1020 | 39 | 27.6 | –
29 | CUUGUUUAUGUAGGAUAUGCCUGGCGUGCCUUUGCAGAAGGACAUGAGGAUCACCCAUGUAACAUGAGGCUCCACCUUGUCGCC [salish99_ExNG1_r04_117] (Eterna round: R96, puzzle: Exclusion NG 1) | – | – | 111 | –
30 | GCAGCAUAGUGUAAUAACACAAUACAUGAGGAUCACCCAUGUGAGGAUAUGGACUGGAUUACAGUCCAGAAGGCACAAAGCUGC [Zipper Style 2] (Eterna round: R96, puzzle: Exclusion NG 3) | 19.9 | 21.1 | 13.3 | –
31 | UCACCUGGGUCAGGAUAUAAAGGGUCAGGAAGUUUAGAAGGGACUUAGGACAUGAGGAUCACCCAUGUUGAGAACUCGUUUGUA [Eternabot solution 25] (Eterna round: R96, puzzle: Exclusion NG 1) | 46.2 | 36.7 | 27.5 | –
32 | GCCGAAAAUGAGAGGAUAUGCCUAUGGAUACGUAGGCAGAAGGCACAUGAGGAUCACCCAUGUUCCUCAACGGC [JL-BMX4-4.26 Eli mod] (Eterna round: R97, puzzle: Brourd's mod of Exclusion 4) | 19.4 | 14.6 | – | –
33 | ACACCACAUGAGGAUCACCCAUGUAAGGAUAUAACGCAUCCGCGUAACUGCGGGCAAGUUAGAAGGUGUAUGGG [Eternabot (L2) Solution 91] (Eterna round: R97, puzzle: Exclusion 1) | 91.9 | 49.6 | – | –
34 | GAAAACGCAGAGGAUAUUUCAGAUCAAAGCUGCAAAGAAGGCUGCACAUGAGGAUCACCCAUGUGGUCUUAAAA [Mod of Quesina 2 - Jieux - Exclusion 6] (Eterna round: R97, puzzle: Exclusion 6) | 337 | 23.8 | – | –
